Measured values: EP4603506A1, “NOVEL GLP-1 RECEPTOR ANTAGONIST, AND PHARMACEUTICAL COMPOSITION FOR PREVENTING OR TREATING CONGENITAL […] OR HYPOGLYCEMIA, COMPRISING SAME” (Hanmi Pharm. Co., Ltd., priority 2022, dated 2024)
Starred links: 1 amine or outer side, 2 acyl side, 3 side chain; linkers in the order of their positions; H or OH if unused. Residues, ends and D or L forms follow the SMILES beside them. Groups on a side chain read outwards from the residue. *: point of attachment. C20 diacid = O=C(O)CCCCCCCCCCCCCCCCCCC(=O)*; C18 diacid = O=C(O)CCCCCCCCCCCCCCCCC(=O)*; γGlu = O=C(O)[C@H](CCC(=O)[*:2])N[*:1]; AEEA = NCCOCCOCC(=O)O

Biological target: human GLP-1 receptor (GLP-1R) (human, UniProt P43220 24-463)
Experiment: cell-based or functional assay
Conditions: not given

Molecule	In vitro activity compared with comparative substance (%); IC50 of cAMP inhibition in hGLP-1R CHO cells with 0.1 nM GLP-1 [%]
Ac-DVSSYLEEEAVRLFIAWLVKGGPSSGAPPPS-NH2 [GLP-1R antagonist analog (SEQ ID NO: 8)]	238
Ac-DVSSYLEEQAVREFIAWLVKGGPSSGAPPPS-NH2 [GLP-1R antagonist analog (SEQ ID NO: 9)]	189
Ac-DVSSYLEEEAVRLFIAWLVKGGPSSGAPPPSK([AEEA-AEEA-γGlu-C18 diacid])-NH2 (SMILES CC[C@H](C)[C@H](NC(=O)[C@H](Cc1ccccc1)NC(=O)[C@H](CC(C)C)NC(=O)[C@H](CCCNC(=N)N)NC(=O)[C@@H](NC(=O)[C@H](C)NC(=O)[C@H](CCC(=O)O)NC(=O)[C@H](CCC(=O)O)NC(=O)[C@H](CCC(=O)O)NC(=O)[C@H](CC(C)C)NC(=O)[C@H](Cc1ccc(O)cc1)NC(=O)[C@H](CO)NC(=O)[C@H](CO)NC(=O)[C@@H](NC(=O)[C@H](CC(=O)O)NC(C)=O)C(C)C)C(C)C)C(=O)N[C@@H](C)C(=O)N[C@@H](Cc1c[nH]c2ccccc12)C(=O)N[C@@H](CC(C)C)C(=O)N[C@H](C(=O)N[C@@H](CCCCN)C(=O)NCC(=O)NCC(=O)N1CCC[C@H]1C(=O)N[C@@H](CO)C(=O)N[C@@H](CO)C(=O)NCC(=O)N[C@@H](C)C(=O)N1CCC[C@H]1C(=O)N1CCC[C@H]1C(=O)N1CCC[C@H]1C(=O)N[C@@H](CO)C(=O)N[C@@H](CCCCNC(=O)COCCOCCNC(=O)COCCOCCNC(=O)CC[C@H](NC(=O)CCCCCCCCCCCCCCCCC(=O)O)C(=O)O)C(N)=O)C(C)C) [acylated GLP-1R antagonist analog conjugate (SEQ ID NO: 18)]	19.8
Ac-DVSSYLEEEAVRLFIAWLVKGGPSSGAPPPSC-NH2 [GLP-1R antagonist analog (SEQ ID NO: 12)]	189
Ac-DVSSYLEEEAVRLFIAWLVKGGPSSGAPPPSK([AEEA-AEEA-γGlu-C20 diacid])-NH2 (SMILES CC[C@H](C)[C@H](NC(=O)[C@H](Cc1ccccc1)NC(=O)[C@H](CC(C)C)NC(=O)[C@H](CCCNC(=N)N)NC(=O)[C@@H](NC(=O)[C@H](C)NC(=O)[C@H](CCC(=O)O)NC(=O)[C@H](CCC(=O)O)NC(=O)[C@H](CCC(=O)O)NC(=O)[C@H](CC(C)C)NC(=O)[C@H](Cc1ccc(O)cc1)NC(=O)[C@H](CO)NC(=O)[C@H](CO)NC(=O)[C@@H](NC(=O)[C@H](CC(=O)O)NC(C)=O)C(C)C)C(C)C)C(=O)N[C@@H](C)C(=O)N[C@@H](Cc1c[nH]c2ccccc12)C(=O)N[C@@H](CC(C)C)C(=O)N[C@H](C(=O)N[C@@H](CCCCN)C(=O)NCC(=O)NCC(=O)N1CCC[C@H]1C(=O)N[C@@H](CO)C(=O)N[C@@H](CO)C(=O)NCC(=O)N[C@@H](C)C(=O)N1CCC[C@H]1C(=O)N1CCC[C@H]1C(=O)N1CCC[C@H]1C(=O)N[C@@H](CO)C(=O)N[C@@H](CCCCNC(=O)COCCOCCNC(=O)COCCOCCNC(=O)CC[C@H](NC(=O)CCCCCCCCCCCCCCCCCCC(=O)O)C(=O)O)C(N)=O)C(C)C) [acylated GLP-1R antagonist analog conjugate (SEQ ID NO: 20)]	15.1
DLSSYLEEEAVRLFIEWLKNGGPSSGAPPPS (N-terminus acetylated; C-terminal amide) [GLP-1R antagonist analog (SEQ ID NO: 10)]	250
DLSSQMEEEAVRLFIEWLKNGGPSSGAPPPS (N-terminus acetylated; C-terminal amide) [GLP-1R antagonist analog (SEQ ID NO: 5)]	85
Ac-DVSSYLEEEAVRLFIAWLVK([AEEA-AEEA-γGlu-C18 diacid])GGPSSGAPPPS-NH2 (SMILES CC[C@H](C)[C@H](NC(=O)[C@H](Cc1ccccc1)NC(=O)[C@H](CC(C)C)NC(=O)[C@H](CCCNC(=N)N)NC(=O)[C@@H](NC(=O)[C@H](C)NC(=O)[C@H](CCC(=O)O)NC(=O)[C@H](CCC(=O)O)NC(=O)[C@H](CCC(=O)O)NC(=O)[C@H](CC(C)C)NC(=O)[C@H](Cc1ccc(O)cc1)NC(=O)[C@H](CO)NC(=O)[C@H](CO)NC(=O)[C@@H](NC(=O)[C@H](CC(=O)O)NC(C)=O)C(C)C)C(C)C)C(=O)N[C@@H](C)C(=O)N[C@@H](Cc1c[nH]c2ccccc12)C(=O)N[C@@H](CC(C)C)C(=O)N[C@H](C(=O)N[C@@H](CCCCNC(=O)COCCOCCNC(=O)COCCOCCNC(=O)CC[C@H](NC(=O)CCCCCCCCCCCCCCCCC(=O)O)C(=O)O)C(=O)NCC(=O)NCC(=O)N1CCC[C@H]1C(=O)N[C@@H](CO)C(=O)N[C@@H](CO)C(=O)NCC(=O)N[C@@H](C)C(=O)N1CCC[C@H]1C(=O)N1CCC[C@H]1C(=O)N1CCC[C@H]1C(=O)N[C@@H](CO)C(N)=O)C(C)C) [acylated GLP-1R antagonist analog conjugate (SEQ ID NO: 15)]	14.3
Ac-TSDVSSYLEEEAVRLFIAWLVKGGPSSGAPPPS-NH2 [GLP-1R antagonist analog (SEQ ID NO: 7)]	196
Ac-DVSSYLEEEAARLFIAWLVK([AEEA-AEEA-γGlu-C18 diacid])GGPSSGAPPPS-NH2 (SMILES CC[C@H](C)[C@H](NC(=O)[C@H](Cc1ccccc1)NC(=O)[C@H](CC(C)C)NC(=O)[C@H](CCCNC(=N)N)NC(=O)[C@H](C)NC(=O)[C@H](C)NC(=O)[C@H](CCC(=O)O)NC(=O)[C@H](CCC(=O)O)NC(=O)[C@H](CCC(=O)O)NC(=O)[C@H](CC(C)C)NC(=O)[C@H](Cc1ccc(O)cc1)NC(=O)[C@H](CO)NC(=O)[C@H](CO)NC(=O)[C@@H](NC(=O)[C@H](CC(=O)O)NC(C)=O)C(C)C)C(=O)N[C@@H](C)C(=O)N[C@@H](Cc1c[nH]c2ccccc12)C(=O)N[C@@H](CC(C)C)C(=O)N[C@H](C(=O)N[C@@H](CCCCNC(=O)COCCOCCNC(=O)COCCOCCNC(=O)CC[C@H](NC(=O)CCCCCCCCCCCCCCCCC(=O)O)C(=O)O)C(=O)NCC(=O)NCC(=O)N1CCC[C@H]1C(=O)N[C@@H](CO)C(=O)N[C@@H](CO)C(=O)NCC(=O)N[C@@H](C)C(=O)N1CCC[C@H]1C(=O)N1CCC[C@H]1C(=O)N1CCC[C@H]1C(=O)N[C@@H](CO)C(N)=O)C(C)C) [acylated GLP-1R antagonist analog conjugate (SEQ ID NO: 16)]	13.5

Biological target: human GLP-1R (hGLP-1R) (Homo sapiens, UniProt P43220)
Sequence (P43220 24-463): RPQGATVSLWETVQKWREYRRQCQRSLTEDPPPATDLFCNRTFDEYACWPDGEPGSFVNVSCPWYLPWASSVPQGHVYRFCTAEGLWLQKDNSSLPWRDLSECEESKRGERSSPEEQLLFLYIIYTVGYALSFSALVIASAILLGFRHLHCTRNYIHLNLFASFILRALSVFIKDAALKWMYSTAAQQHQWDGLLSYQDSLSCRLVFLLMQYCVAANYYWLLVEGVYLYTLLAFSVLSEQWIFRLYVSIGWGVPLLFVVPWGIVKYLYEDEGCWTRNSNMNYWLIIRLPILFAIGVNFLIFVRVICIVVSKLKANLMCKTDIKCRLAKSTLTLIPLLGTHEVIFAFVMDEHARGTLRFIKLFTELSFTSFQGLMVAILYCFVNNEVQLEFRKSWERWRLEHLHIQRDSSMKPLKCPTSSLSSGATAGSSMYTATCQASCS
Experiment: In vitro cell activity: cAMP inhibition (LANCE Ultra cAMP kit) in CHO cells expressing human GLP-1R, with GLP-1 added
Format: cell-based
Conditions: relative activity from IC50 of cAMP inhibition; 0.1 nM GLP-1 added; comparative substance exendin-3 (9-39) amide = 100
Procedure: The human GLP-1R-expressed CHO cells were cultured in a 384-well plate for 24 hours. Thereafter, the culture was removed, and 10 µL of each serially diluted substance was added to the plate, followed by incubation at room temperature for 30 minutes. Then, 5 µL of Eu-cAMP tracer was added, and then 5 µL of a buffer containing cAMP antibodies was added, followed by incubation at room temperature for 60 minutes. […]

Molecule	In vitro activity compared with comparative substance (%)
CC[C@H](C)[C@H](NC(=O)[C@H](Cc1ccccc1)NC(=O)[C@H](CC(C)C)NC(=O)[C@H](CCCNC(=N)N)NC(=O)[C@@H](NC(=O)[C@H](C)NC(=O)[C@H](CCC(=O)O)NC(=O)[C@H](CCC(=O)O)NC(=O)[C@H](CCC(=O)O)NC(=O)[C@H](CC(C)C)NC(=O)[C@H](Cc1ccc(O)cc1)NC(=O)[C@H](CO)NC(=O)[C@H](CO)NC(=O)[C@@H](NC(=O)[C@H](CC(=O)O)NC(=O)[C@H](CO)NC(=O)[C@@H](NC(C)=O)[C@@H](C)O)C(C)C)C(C)C)C(=O)N[C@@H](C)C(=O)N[C@@H](Cc1c[nH]c2ccccc12)C(=O)N[C@@H](CC(C)C)C(=O)N[C@H](C(=O)N[C@@H](CCCCN)C(=O)NCC(=O)NCC(=O)N1CCC[C@H]1C(=O)N[C@@H](CO)C(=O)N[C@@H](CO)C(=O)NCC(=O)N[C@@H](C)C(=O)N1CCC[C@H]1C(=O)N1CCC[C@H]1C(=O)N1CCC[C@H]1C(=O)N[C@@H](CO)C(N)=O)C(C)C [SEQ ID NO: 7] (Ac-TSDVSSYLEEEAVRLFIAWLVKGGPSSGAPPPS-NH2)	195.5
CC[C@H](C)[C@H](NC(=O)[C@H](Cc1ccccc1)NC(=O)[C@H](CC(C)C)NC(=O)[C@H](CCCNC(=N)N)NC(=O)[C@@H](NC(=O)[C@H](C)NC(=O)[C@H](CCC(=O)O)NC(=O)[C@H](CCC(=O)O)NC(=O)[C@H](CCC(=O)O)NC(=O)[C@H](CC(C)C)NC(=O)[C@H](Cc1ccc(O)cc1)NC(=O)[C@H](CO)NC(=O)[C@H](CO)NC(=O)[C@@H](NC(=O)[C@H](CC(=O)O)NC(C)=O)C(C)C)C(C)C)C(=O)N[C@@H](C)C(=O)N[C@@H](Cc1c[nH]c2ccccc12)C(=O)N[C@@H](CC(C)C)C(=O)N[C@H](C(=O)N[C@@H](CCCCN)C(=O)NCC(=O)NCC(=O)N1CCC[C@H]1C(=O)N[C@@H](CO)C(=O)N[C@@H](CO)C(=O)NCC(=O)N[C@@H](C)C(=O)N1CCC[C@H]1C(=O)N1CCC[C@H]1C(=O)N1CCC[C@H]1C(=O)N[C@@H](CO)C(N)=O)C(C)C [SEQ ID NO: 8] (Ac-DVSSYLEEEAVRLFIAWLVKGGPSSGAPPPS-NH2)	238.5
CC[C@H](C)[C@H](NC(=O)[C@H](Cc1ccccc1)NC(=O)[C@H](CCC(=O)O)NC(=O)[C@H](CCCNC(=N)N)NC(=O)[C@@H](NC(=O)[C@H](C)NC(=O)[C@H](CCC(N)=O)NC(=O)[C@H](CCC(=O)O)NC(=O)[C@H](CCC(=O)O)NC(=O)[C@H](CC(C)C)NC(=O)[C@H](Cc1ccc(O)cc1)NC(=O)[C@H](CO)NC(=O)[C@H](CO)NC(=O)[C@@H](NC(=O)[C@H](CC(=O)O)NC(C)=O)C(C)C)C(C)C)C(=O)N[C@@H](C)C(=O)N[C@@H](Cc1c[nH]c2ccccc12)C(=O)N[C@@H](CC(C)C)C(=O)N[C@H](C(=O)N[C@@H](CCCCN)C(=O)NCC(=O)NCC(=O)N1CCC[C@H]1C(=O)N[C@@H](CO)C(=O)N[C@@H](CO)C(=O)NCC(=O)N[C@@H](C)C(=O)N1CCC[C@H]1C(=O)N1CCC[C@H]1C(=O)N1CCC[C@H]1C(=O)N[C@@H](CO)C(N)=O)C(C)C [SEQ ID NO: 9] (Ac-DVSSYLEEQAVREFIAWLVKGGPSSGAPPPS-NH2)	188.6
